# From publication PMC10649420, “Expression Patterns and Functional Analysis of Three SmTAT Genes Encoding Tyrosine Aminotransferases in Salvia miltiorrhiza” (International Journal of Molecular Sciences, 2023)
# Assays:
# Test in all cases: aminotransferase assay, product absorbance, microplate reader
# Type in all cases: biochemical, Salvia miltiorrhiza
# SmTAT3 = conditions: 100 μM PLP, 30 °C, 30 min, 20 μg/mL enzyme
# Text: aminotransferase assay, product absorbance, microplate reader on SmTAT3
# [1] = substrate: O=C(O)C(=O)Cc1ccccc1; conditions: 10 mM glutamate, 100 μM PLP, 30 °C, 30 min, 1 μg/mL enzyme, reverse reaction
# Text: (§1) aminotransferase assay, product absorbance, microplate reader on SmTAT1
# [2] = substrate: N[C@@H](Cc1ccccc1)C(=O)O; conditions: 10 mM alpha-ketoglutarate, 100 μM PLP, 30 °C, 30 min, 1 μg/mL enzyme
# Text: as §1
# [3] = substrate: O=C(O)C(=O)Cc1ccc(O)cc1; conditions: 10 mM glutamate, 100 μM PLP, 30 °C, 30 min, 1 μg/mL enzyme, reverse reaction
# Text: as §1
# [4] = substrate: N[C@@H](Cc1ccc(O)cc1)C(=O)O; conditions: 10 mM alpha-ketoglutarate, 100 μM PLP, 30 °C, 30 min, 1 μg/mL enzyme
# Text: as §1
# [5] = substrate: O=C(O)C(=O)Cc1ccccc1; conditions: 10 mM glutamate, 100 μM PLP, 30 °C, 30 min, 20 μg/mL enzyme, reverse reaction
# Text: (§2) aminotransferase assay, product absorbance, microplate reader on SmTAT2
# [6] = substrate: N[C@@H](Cc1ccccc1)C(=O)O; conditions: 10 mM alpha-ketoglutarate, 100 μM PLP, 30 °C, 30 min, 20 μg/mL enzyme
# Text: as §2
# [7] = substrate: O=C(O)C(=O)Cc1ccc(O)cc1; conditions: 10 mM glutamate, 100 μM PLP, 30 °C, 30 min, 20 μg/mL enzyme, reverse reaction
# Text: as §2
# [8] = substrate: N[C@@H](Cc1ccc(O)cc1)C(=O)O; conditions: 10 mM alpha-ketoglutarate, 100 μM PLP, 30 °C, 30 min, 20 μg/mL enzyme
# Text: as §2
# [9] = 10 mM glutamate, reverse reaction
molecule,measurement,setting,value
O=C(O)C(=O)Cc1ccccc1 [phenylpyruvate],Km,SmTAT3; [9],3910 ± 2010 µM
O=C(O)C(=O)Cc1ccc(O)cc1 [4-hydroxyphenylpyruvate],Km,SmTAT3; [9],2220 ± 220 µM
N[C@@H](Cc1ccc(O)cc1)C(=O)O [tyrosine],Km,SmTAT3; 10 mM alpha-ketoglutarate,2730 ± 1610 µM
N[C@@H](Cc1ccccc1)C(=O)O [phenylalanine],Km,SmTAT3; 10 mM alpha-ketoglutarate,5470 ± 3230 µM
"SmTAT1 (Salvia miltiorrhiza) (protein, full ORF 1236 bp (about 411 residues) with GST tag (pGEX-4T-1), soluble from E. coli Arctic Express (DE3)) MELQNPAQEIDAPTTITIKGILGLLMSSTDPKESGKRVISLGIGDPTAYSCFHASNAAQEGVVEALRSTKFNGYAPTAGLPQTREAIAEYLSRDLPYKLPADSVYVTAGCTQAIEIALSVLARPGANILLPRPCFPIYGLCASFRNIEVRYFDLHPEQGWEVDLDAVADLADHNTVAMVIINPGNPCGNVYSYQHLKKIAETAKRLGIVVIADEVYGHLAFGANPFVPMGIFGSIAPVVTLGSLSKRWLVPGWRLGWLVINDPDGSLMSPKFVERIKKYCDICGGPATFIQAAVPEIVEQTQEVFFRKTINILKQTSDICYQKIEDINGITCPTKPKGAMAFMVKLNLSRMKDISDDIDFCFKLAKEESVIILPGLAVGLKNWIRITFAVDVPALEEAMERLKSFCERHSY",Km,[1],710 ± 210 µM
same,Vmax,[1],3.63 µmol/min/mg
same,kcat,[1],10.4 ± 0.39 s⁻¹
same,kcat/Km,[1],16300 ± 4620 M⁻¹ s⁻¹
same,Km,[2],3080 ± 990 µM
same,Vmax,[2],4.36 µmol/min/mg
same,kcat,[2],12.6 ± 1.43 s⁻¹
same,kcat/Km,[2],4680 ± 2020 M⁻¹ s⁻¹
same,Km,[3],2770 ± 520 µM
same,Vmax,[3],3.19 µmol/min/mg
same,kcat,[3],9.21 ± 0.78 s⁻¹
same,kcat/Km,[3],3500 ± 940 M⁻¹ s⁻¹
same,Km,[4],310 ± 110 µM
same,Vmax,[4],6.88 µmol/min/mg
same,kcat,[4],19.8 ± 0.93 s⁻¹
same,kcat/Km,[4],74400 ± 29400 M⁻¹ s⁻¹
SmTAT2 (Salvia miltiorrhiza) (protein) MPNSTERERERELSMENGGSAAARWRFEGNERLILAGGVTVRGVLNTVIGNLDGNDTRPVIPLGHGDPSAFPSFRTSPFAEDAVCSAVRSTKFNGYSSTVGIPAARSAVAEYLSKDLPYKLSPDDVFLTIGCTQALEAVVTVLARPGANLLLPRPGFPYYEARAGFCSLEFRHFDLLPEQDWEVDLASVEALADENTVAMVIINPGNPCGNVFKYEHLKKVAETARKLGILVISDEVYDHLTFGSNPFVPMGVFASIAPILTLGSISKRWIVPGWRLGWLVTNDPDGILTKQGIVDSIKGFLNISADPATFMQGAVPQILENTPSDFFQKIVSTLRETADICYERSKEIPCITCPSRPEGSMFAMVKLNLSLLEGIEDDMDFCCKLAKEESVILLPGFAVGLKNWLRVTFAIEPSSLDDGFLRIKAFHQRHAKKQ,Km,[5],3940 ± 990 µM
same,Vmax,[5],0.057 µmol/min/mg
same,kcat,[5],0.17 ± 0.02 s⁻¹
same,kcat/Km,[5],50 ± 20 M⁻¹ s⁻¹
same,Km,[6],6930 ± 3390 µM
same,Vmax,[6],0.109 µmol/min/mg
same,Km,[7],480 ± 160 µM
same,Vmax,[7],0.448 µmol/min/mg
same,kcat,[7],1.35 ± 0.08 s⁻¹
same,kcat/Km,[7],3230 ± 1240 M⁻¹ s⁻¹
same,Km,[8],3470 ± 1690 µM
same,Vmax,[8],0.0486 µmol/min/mg
same,kcat,[8],0.15 ± 0.03 s⁻¹
same,kcat/Km,[8],60 ± 40 M⁻¹ s⁻¹
